“And” between values parts separate entries of the source, which are not always exact repeats. Identical values can stand only once.

Holding throughout (assay): BLI
Holding throughout (settings): both partners purified

The target in assay [1] is T1, spike hepta-peptide Tyr1272 → Ala (1267Gly-Val-Lys-Leu-His-Ala-Thr1273) (SARS-CoV-2, Tyr^1272 → Ala (stands in the printed letters)).
T1 peptide: GVKLHAT

Assay [2] deals with T2, spike hepta-peptide Thr1273 → Ala (1267Gly-Val-Lys-Leu-His-Tyr-Ala1273) (SARS-CoV-2, Thr^1273 → Ala (stands in the printed letters)).
T2 peptide: GVKLHYA

Assay [3] concerns the target T3, spike hepta-peptide Thr1273 → Val (SARS-CoV-2, Thr^1273 → Val (stands in the printed letters)).
T3 peptide: GVKLHYV

Assay [4] addresses T4, spike hepta-peptide Thr1273 → Glu (SARS-CoV-2, Thr^1273 → Glu (stands in the printed letters)).
T4 peptide: GVKLHYE

Assay [5] addresses T5, spike hepta-peptide Thr1273 → Gln (SARS-CoV-2, Gln^1273 (stands in the printed letters)).
T5 peptide: GVKLHYQ

The target of assay [6] is T6, spike hepta-peptide Thr1273 → Arg (SARS-CoV-2, Arg^1273 (stands in the printed letters)).
T6 peptide: GVKLHYR

B1: αCOPI-WD40 domain (residues 1-327) from Schizosaccharomyces pombe (domain or fragment)
chain: MEMLTKFESRSSRAKGVAFHPTQPWILTSLHNGRIQLWDYRMGTLLDRFDGHDGPVRGIAFHPTQPLFVSGGDDYKVNVWNYKSRKLLFSLCGHMDYVRVCTFHHEYPWILSCSDDQTIRIWNWQSRNCIAILTGHSHYVMCAAFHPSEDLIVSASLDQTVRVWDISGLRMKNAAPVSMSKEDQKAQAHNSKSNDKKGSTDAIVKFVLEGHDRGVNWCAFHPTLPLILSAGDDRLVKLWRMTASKAWEVDTCRGHFNNVSCCLFHPHQELILSASEDKTIRVWDLNRRTAVQTFRRDNDRFWFITVHPKLNLFAAAHDSGVMVFKLE
By Kd is commonly meant a measure of binding affinity in units of concentration. Lower therefore signals tighter binding. As usually defined, the koff is the first-order rate constant of dissociation. One may read the kon as a measure of how fast the partners come together. The low end stands for slower complex formation, the high end for faster complex formation. Take B1: the Kd is 3.77 µM and 2.32 µM in assay [1]; 1.13 µM and 1.14 µM in assay [2]; 3.2 µM and 2.06 µM in assay [3]; 0.31 µM and 0.38 µM in assay [4]; 0.78 µM and 1.15 µM in assay [5]; 1.73 µM and 1.29 µM in assay [6]. Further, the koff in assay [1] came out at 0.28 s⁻¹; in assay [2] it was 0.076 s⁻¹; in assay [3], 0.212 s⁻¹; in assay [4] it was 0.024 s⁻¹; in assay [5] it was 0.066 s⁻¹; in assay [6] it was 0.177 s⁻¹. In addition, the kon in assay [1] turned out to be 121000 M⁻¹ s⁻¹; in assay [2], 66700 M⁻¹ s⁻¹; in assay [3], 103000 M⁻¹ s⁻¹; in assay [4], 59000 M⁻¹ s⁻¹; in assay [5], 60000 M⁻¹ s⁻¹; in assay [6], 57600 M⁻¹ s⁻¹.

Source of the values: article PMC8825798 (Communications Biology, 2022).
